Source: article PMC10468207

How the values were obtained:
[1] = biological target: kinase-dead CaMKII (K42R and D135N double mutant) with C-terminal AviTag (human) (UniProt Q9UQM7); assay: mass photometry; 400 nM CaMKII, activating conditions (8 µM CaMKII incubated with 1.5 µM Ca2+:CaM, 1 mM ATP, 2 mM MgCl2 for 5 min at room temperature, then diluted); 25 mM Tris pH 8, 150 mM KCl, 1 mM TCEP
[2] = biological target: kinase-dead CaMKII (K42R and D135N double mutant) with C-terminal AviTag (human) (UniProt Q9UQM7); assay: SEC; Superose 6 10/300 increase column; SEC buffer 25 mM Tris pH 8, 250 mM NaCl, 1% glycerol, 1 mM TCEP; assembly of subunits into the holoenzyme
[3] = biological target: kinase-dead CaMKII (K42R and D135N double mutant) with C-terminal AviTag (human) (UniProt Q9UQM7); assay: mass photometry; 400 nM CaMKII, basal conditions; 25 mM Tris pH 8, 150 mM KCl, 1 mM TCEP; Refeyn One MP
CaMKII^F394BzF (human) = CaMKII^F394BzF (human) (UniProt Q9UQM7); assay: SEC; Superose 6 10/300 increase column; SEC buffer 25 mM Tris pH 8, 250 mM NaCl, 1% glycerol, 1 mM TCEP; assembly of subunits into the holoenzyme

Substance | percent in the tetramer peak [1] [%] | stoichiometry N [1] | stoichiometry N [2] | stoichiometry N [3] | stoichiometry N (CaMKII^F394BzF (human))
kinase-dead CaMKII (K42R and D135N double mutant) with C-terminal AviTag (from UniProt Q9UQM7 6-478) (enzyme) | 12 | 4 | 12 | 10 | 
CaMKII^F394BzF (from UniProt Q9UQM7 6-478) (enzyme) |  |  |  |  | 12
